Assay results from patent publication US20110097328A1 (MIT, published 2011).

Columns and labels:
[1] = biological target: T1, PARP12-GFP fusion protein (UniProt Q9H0J9 1-701); assay: co-immunoprecipitation: anti-GFP IP from lysate of transfected HeLa S3 cells (0 or 20 nM pateamine A, 30 min), immunoblot with anti-LSM1
T1 construct: Expressed in HeLa S3 cells from pEGFP-C1; not shown: EGFP (green fluorescent protein) encoded by vector pEGFP-C1, located N-terminal (5') to the PARP
T1 sequence (looked up): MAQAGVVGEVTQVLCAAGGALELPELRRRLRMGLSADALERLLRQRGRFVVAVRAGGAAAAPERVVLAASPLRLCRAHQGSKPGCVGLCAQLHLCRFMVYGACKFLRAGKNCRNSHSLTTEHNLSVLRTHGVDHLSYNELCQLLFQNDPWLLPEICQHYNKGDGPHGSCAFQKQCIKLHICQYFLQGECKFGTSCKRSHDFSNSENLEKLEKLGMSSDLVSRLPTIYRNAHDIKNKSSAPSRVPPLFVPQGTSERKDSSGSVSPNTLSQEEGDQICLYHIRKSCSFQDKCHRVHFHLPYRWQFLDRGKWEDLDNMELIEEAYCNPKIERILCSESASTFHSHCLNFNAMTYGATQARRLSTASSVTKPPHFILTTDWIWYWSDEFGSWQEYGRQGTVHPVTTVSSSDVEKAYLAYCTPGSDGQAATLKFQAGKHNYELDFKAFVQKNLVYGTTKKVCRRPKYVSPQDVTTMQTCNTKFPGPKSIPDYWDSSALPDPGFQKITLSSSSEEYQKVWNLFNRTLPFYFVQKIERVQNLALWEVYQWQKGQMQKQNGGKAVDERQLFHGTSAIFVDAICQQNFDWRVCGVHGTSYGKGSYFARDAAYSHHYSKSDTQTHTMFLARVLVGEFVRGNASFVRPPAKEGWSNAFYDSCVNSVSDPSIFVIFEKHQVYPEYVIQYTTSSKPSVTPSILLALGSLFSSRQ
Procedure: (§1) FIG. 25C is a picture of several immunoblots of a 4-12% SDS-PAGE gel containing proteins immunoprecipitated with an anti-GFP antibody from lysate from HeLa S3 cells transfected with a pEGFP-C1 plasmid expressing GFP, PARP5A-GFP, PARP12-GFP, PARP13-GFP, PARP13.1-GFP, or PARP15-GFP following treatment with 0 or 20 nM pateamine A for 30 minutes. The immunoblots were developed using one of the following antibodies: anti-Agog, anti-DDX6, anti-LSM1, anti-PABP, anti-FMRP, anti-eIF1A, anti-eIF2a, anti-eIF3η, anti-eIF4A1, and anti-eIF4E.
(§2) Data from a separate set of experiments indicate that several stress granule-associated proteins bind to the PARP13-GFP, PARP12-GFP, and PARP5A-GFP fusion proteins. In these experiments, HeLa S3 cells were transfected with a pEGFP-C1 plasmid encoding a PARP13-GFP, PARP12-GFP, or PARP5A-GFP fusion protein and treated with 0 or 20 nM pateamine A for 30 minutes. Cell lysates from the cells were immunoprecipitated using an anti-GFP antibody and the immunoprecipitated proteins were electrophoresed using 4-12% SDS-PAGE. The resulting proteins were transferred to a membrane and immunoblotted using commercially-available antibodies specific for different stress granule-associated proteins: Ago2, DDX6, LSM1, PABP, FMRP, eIF1A, eIF2α, eIF3η, eIF4A1, and eIF4E.

[2] = biological target: T2, PARP5A-GFP fusion protein (UniProt O95271 1-1327); assay: as above
T2 construct: Expressed in HeLa S3 cells from pEGFP-C1; also called tankyrase 1-GFP; not shown: EGFP (green fluorescent protein) encoded by vector pEGFP-C1, located N-terminal (5') to the PARP
T2 sequence (looked up): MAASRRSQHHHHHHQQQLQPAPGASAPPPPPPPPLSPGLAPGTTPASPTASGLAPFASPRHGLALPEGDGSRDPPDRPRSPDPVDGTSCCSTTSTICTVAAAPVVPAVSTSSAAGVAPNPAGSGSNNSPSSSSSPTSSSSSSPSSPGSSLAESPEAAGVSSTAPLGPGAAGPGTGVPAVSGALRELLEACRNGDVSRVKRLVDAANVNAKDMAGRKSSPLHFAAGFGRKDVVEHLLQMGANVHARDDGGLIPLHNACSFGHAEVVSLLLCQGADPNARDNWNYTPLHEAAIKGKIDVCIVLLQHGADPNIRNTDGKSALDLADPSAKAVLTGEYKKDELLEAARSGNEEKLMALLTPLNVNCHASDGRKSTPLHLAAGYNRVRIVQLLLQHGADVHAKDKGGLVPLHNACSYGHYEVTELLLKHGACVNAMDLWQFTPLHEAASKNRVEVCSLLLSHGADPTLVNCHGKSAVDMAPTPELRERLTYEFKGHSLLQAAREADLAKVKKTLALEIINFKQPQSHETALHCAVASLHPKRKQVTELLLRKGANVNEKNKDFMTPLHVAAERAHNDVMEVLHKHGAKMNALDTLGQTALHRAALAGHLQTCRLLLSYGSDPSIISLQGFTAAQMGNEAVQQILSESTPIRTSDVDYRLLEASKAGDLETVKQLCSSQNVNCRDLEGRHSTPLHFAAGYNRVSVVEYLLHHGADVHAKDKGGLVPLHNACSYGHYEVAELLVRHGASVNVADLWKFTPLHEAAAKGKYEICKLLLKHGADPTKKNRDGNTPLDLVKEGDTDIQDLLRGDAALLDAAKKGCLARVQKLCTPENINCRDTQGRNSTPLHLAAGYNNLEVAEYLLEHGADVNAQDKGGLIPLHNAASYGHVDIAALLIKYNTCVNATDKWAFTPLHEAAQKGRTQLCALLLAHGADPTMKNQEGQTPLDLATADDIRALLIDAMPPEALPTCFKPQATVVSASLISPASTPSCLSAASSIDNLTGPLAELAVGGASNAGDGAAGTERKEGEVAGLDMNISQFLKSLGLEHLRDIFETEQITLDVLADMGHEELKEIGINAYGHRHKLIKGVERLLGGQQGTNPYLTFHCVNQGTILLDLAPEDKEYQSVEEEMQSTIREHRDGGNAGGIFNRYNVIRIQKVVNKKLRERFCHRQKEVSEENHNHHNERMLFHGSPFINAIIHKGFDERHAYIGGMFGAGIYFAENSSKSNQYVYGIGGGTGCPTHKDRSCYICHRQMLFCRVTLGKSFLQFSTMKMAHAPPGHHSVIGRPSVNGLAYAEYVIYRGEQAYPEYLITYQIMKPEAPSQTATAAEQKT
Procedure: as §1, §2

binding result [1]: no binding | binding result [2]: no binding
B1: LSM1 (other, human (HeLa S3 cells), UniProt O15116 1-133, looked up)
single chain: MNYMPGTASLIEDIDKKHLVLLRDGRTLIGFLRSIDQFANLVLHQTVERIHVGKKYGDIPRGIFVVRGENVVLLGEIDLEKESDTPLQQVSIEEILEEQRVEQQTKLEAEKLKVQALKDRGLSIPRADTLDEY
notes: endogenous protein in the cell lysate; member of the group m8
